Assay results reported in patent US20230227833.

Tested on: Reverse transcriptase (RT)
Assay: inhibition
Details: RNA strand 3' phosphate; DNA strand 3' dideoxy; 37 C; activity fully released at 55 C

In the case of “TCGAACGGGACGGCTGGCTGTGTGTGT / CCAGCCGTCC [analogs 6+7 (RNA/DNA)]”, the activity (% residual activity) is reported as 16.
